Consider two molecules from patent US20170360931A1.

Assay in all cases: cell-based or functional assay
The target in assay [1] is HA of wild type A/Shanghai/1/2013 (H7N9) virus (influenza A virus A/Shanghai/1/2013 (H7N9)).
Assay [2] concerns the target all H3N2 and H7 strains (plaque reduction assay).
Assay [3] concerns the target HA of A/California/04/2009 (H1N1) virus (influenza A virus A/California/04/2009 (H1N1)).

B1: 042-100809-2F04 (antibody, V domains shown)
VH: EVQLVESGGGLVQPGGSLRLSCVASGFTFSTPWMTWIRQAPGKGLEWVAHIKQDGSETYYVDSVKGRFTISRDNAKNSLYLQMNSLKAEDTALYYCARMTRESSENYWGQGTLVTVSS
VL: DVVMTQSPLSLPVTLGQPASISCRSSQSLVYSDGDTFLEWFQQRPGQSPRRLIYKVSNRDSGVPDRFSGSGSGTDFTLKISRVEAEDVGLYYCMQHTHWPHTFGQGTKVEIK
The molecule B1 gave a PRNT50 (plaque reduction assay) in assay [1] of 27 µg/mL.

B2: S6-B01 (antibody, V domains shown)
VH: QVQLVQSGAEVKKPGASVKVSCKASGYTFNSYGISWVRQAPGQGLEWMGWISAYTGDTKFAQNVQGRVTMTIDTSTSTAYMELRSLRSDDTAVYYCARHYLQGVVVVDPYSHAMDVWGQGTTVTVSS
VL: EIVLTQSPGTLSFFPGERATLSCRASQTINSRFLAWYQQKPGQAPRLLIYGASSRATGIPDRFSGRGSGTDFTLAISRLEPEDFAVYYCQLYGSSRTTFGQGTKVEIK
B2: the figures for the PRNT50 (plaque reduction assay) in assay [2] and in assay [3] were 3 to 6 µg/mL and above 120 µg/mL, respectively.
